For the series, the target named is alpha-thrombin (UniProt P00734;P00734 328-363;364-622). Put plainly: SPR imaging.

B1: Da thrombin aptamer (ssDNA)
DNA: AGTCCGTGGTAGGGCAGGTTGGGGTGACTTTTTTTTTTTTTTTT
modifications: 3'-NH2, surface-attached to pGlu-MUAM on gold
For the molecule B1, the binding result is “binds”.

Values taken from PMC3093654.
